T1: murine CD27-FcHis fusion protein (murine, UniProt P41272 24-182, limits assumed)
T1 construct: Immobilized directly on the chip by amino coupling; also called mouse CD27; not shown: Fc and His tag
T1 sequence (looked up): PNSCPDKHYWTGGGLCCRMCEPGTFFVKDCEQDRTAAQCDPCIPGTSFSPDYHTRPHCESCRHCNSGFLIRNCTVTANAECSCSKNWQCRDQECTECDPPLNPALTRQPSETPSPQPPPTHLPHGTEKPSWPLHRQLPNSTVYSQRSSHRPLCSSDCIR

T2: human FAS expressed on transfected HEK293 cells (human, UniProt P25445 26-335)
T2 construct: whole, on cells
T2 sequence (looked up): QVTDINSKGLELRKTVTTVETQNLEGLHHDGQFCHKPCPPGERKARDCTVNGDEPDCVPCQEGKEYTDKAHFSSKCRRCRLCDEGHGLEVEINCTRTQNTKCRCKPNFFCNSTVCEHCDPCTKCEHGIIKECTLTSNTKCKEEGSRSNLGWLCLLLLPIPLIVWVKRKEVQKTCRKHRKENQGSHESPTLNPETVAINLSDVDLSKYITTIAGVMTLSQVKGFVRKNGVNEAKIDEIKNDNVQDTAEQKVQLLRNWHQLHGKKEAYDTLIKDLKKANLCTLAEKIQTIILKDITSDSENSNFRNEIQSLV

T3: human CD27 expressed on the cell surface of transfected HEK293 cells (human, UniProt P26842 20-260)
T3 construct: whole, on cells; also called human CD27 antigen expressed by HEK293 cells
T3 sequence (looked up): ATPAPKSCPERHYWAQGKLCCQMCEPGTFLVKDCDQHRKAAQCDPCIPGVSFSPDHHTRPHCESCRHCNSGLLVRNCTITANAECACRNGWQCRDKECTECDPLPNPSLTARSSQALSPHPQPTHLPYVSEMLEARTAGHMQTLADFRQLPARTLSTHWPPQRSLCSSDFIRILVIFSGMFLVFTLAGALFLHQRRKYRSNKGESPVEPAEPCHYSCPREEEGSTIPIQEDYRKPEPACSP

T4: murine CD27 expressed on the cell surface of transfected HEK293 cells (murine, UniProt P41272 24-250)
T4 construct: whole, on cells; also called mouse CD27 antigen expressed by HEK293 cells
T4 sequence (looked up): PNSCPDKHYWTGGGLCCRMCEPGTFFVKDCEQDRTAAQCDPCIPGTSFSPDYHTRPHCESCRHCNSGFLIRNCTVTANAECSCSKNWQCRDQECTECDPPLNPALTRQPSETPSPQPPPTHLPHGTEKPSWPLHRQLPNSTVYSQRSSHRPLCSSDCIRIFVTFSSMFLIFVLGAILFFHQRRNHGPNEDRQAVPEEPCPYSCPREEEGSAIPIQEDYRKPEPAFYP


Legend:
[1] = molecular target: T1, murine CD27-FcHis fusion protein; experiment: SPR (Biacore), murine CD27-FcHis immobilized, antibody as analyte
Procedure: The affinity of the antibody binding to […] CD27 was also determined using SPR. In this experiment, the murine CD27-FcHis fusion protein was directly immobilized on a CMS chip (600 RU) by amino coupling. Antibodies at different concentrations (0.39, 0.78, 1.56, 3.13, 6.25, 12.5, 25, 50, 100 nM) were loaded at a flow rate of […] for 30 seconds with a dissociation time of 1800 seconds.

[2] = molecular target: T2, human FAS expressed on transfected …; experiment: flow cytometry on transfected HEK293 cells
[3] = molecular target: T3, human CD27 expressed on the cell …; experiment: flow cytometry on transfected HEK293 cells
[4] = molecular target: T4, murine CD27 expressed on the cell …; experiment: flow cytometry on transfected HEK293 cells
[5] = molecular target: T3, human CD27 expressed on the cell …; experiment: flow cytometry on transfected HEK293 cells, 100 nM antibody
Procedure: (§1) The binding of antibody to human or murine CD27 expressed on cell surface is determined by fluorescence activated cell sorting (FACS). The corresponding antigen was transiently transfected into HEK293 cells using a vector plasmid and expressed. After 48 hours, cells were harvested and washed once with cold FACS buffer (PBS, 1% BSA), and then incubated with 100 nM corresponding antibody for 1 hour on ice. After washing twice with buffer, the cells were bound to Alexa Fluor 647-conjugated murine anti-human Fc antibody for 30 minutes on ice. After washing once, the cells were loaded onto a Beckman® CytoFlex flow cytometer for detection and the percentage of cells with binding signals was calculated.

[6] = molecular target: T4, murine CD27 expressed on the cell …; experiment: as above
Procedure: as §1

| Binder | binding result [1] | binding result [2] | binding result [3] | binding result [4] | binding result [5] | binding result [6] |
| --- | --- | --- | --- | --- | --- | --- |
| anti-CD27 antibody mAb076 (IgG1 form) (antibody, V domains shown, Human antibody from phage display) VH: EVQLVESGGGLVQPGGSLRLSCAASGFTFSDYGIHWVRQAPGKGLEWIGWINPNRGSTNYAQKFQGRVTISRDNSKNTLYLQLNSLRAEDTAVYYCARDYGYTWYFDVWGQGTLVTVSS VL: DIQLTQSPSSLSASVGDRVTITCRASQDISSVLAWYQQKPGKAPKLLIYAASSLQSGVPSRFSGSGSGTDFTLTISSLQPEDFATYYCQQRDAWPLTFGQGTKVEIK | binds | no binding (tested: 100 nM) | binds | binds |  |  |
| anti-CD27 antibody mAb077 (IgG1 form) (antibody, V domains shown, Human antibody from phage display) VH: EVQLVESGGGLVQPGGSLRLSCAASGFTFSGYGIHWVRQAPGKGLEWIGWINPNRGSTKYAQKFQGRVTISRDNSKNTLYLQLNSLRAEDTAVYYCARDPGYTWYFDVWGQGTLVTVSS VL: DIQLTQSPSSLSASVGDRVTITCRASQDISSDLAWYQQKPGKAPKLLIYAASTLQSGVPSRFSGSGSGTDFTLTISSLQPEDFATYYCQQRDAWPPTFGQGTKVEIK | binds | no binding (tested: 100 nM) |  |  | binds | binds |

From patent US20190225698A1 (JIANGSU HENGRUI MEDICINE, published 2019)
